# Where no end group is shown, it is not given here.
# Target: T1, Chk1 kinase (Homo sapiens, UniProt O14757)
# T1 construct: 2 (KH289); made in house; host or cells: baculovirus (Bac-to-Bac, pFastBac-Nde) in Hi-5 insect cells
# T1 sequence (O14757 1-289): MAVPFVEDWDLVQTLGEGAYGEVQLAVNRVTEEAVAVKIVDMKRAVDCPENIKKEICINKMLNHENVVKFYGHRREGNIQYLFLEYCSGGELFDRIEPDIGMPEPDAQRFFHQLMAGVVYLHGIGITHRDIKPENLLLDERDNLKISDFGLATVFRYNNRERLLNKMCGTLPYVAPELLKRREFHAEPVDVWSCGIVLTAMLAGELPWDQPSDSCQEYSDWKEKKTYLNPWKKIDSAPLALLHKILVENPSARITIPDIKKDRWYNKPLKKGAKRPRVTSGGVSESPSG
# Assay: Peptide substrates tested for activity as Chk1 substrates
# Format: biochemical
# Settings: Syntide 2 = 100%
# Protocol: The enzymatic activity of a kinase is measured by its ability to catalyze the transfer of a phosphate residue from a nucleoside triphosphate to an amino acid side chain in a selected protein target. The conversion of ATP to ADP generally accompanies the catalytic reaction. Herein, a synthetic substrate peptide, Syntide-2, having amino acid sequence PLARTLSVAGLPGKK (SEQ ID NO. 11) was utilized. The production of ADP from ATP that accompanies phosphoryl transfer to the substrate was coupled to oxidation of NADH using phosphoenolpyruvate (PEP) through the actions of pyruvate kinase (PK) and lactic dehydrogenase (LDH). The oxidation of NADH was monitored by following the decrease of absorbance at 340 nm (e340=6.22 cm−1 mM−1) using a HP8452 spectrophotometer. Typical reaction solutions contained: 4 mM PEP, 0.15 mM NADH, 28 units of LDH/mL, 16 units of PK/mL, 3 mM DTT, 0.125 mM Syntide-2, 0.15 mM ATP and 25 mM MgCl2 in 50 mM TRIS pH 7.5; 400 mM NaCl. Assays were initiated with 10 nM of kinase domain of Chk1, KH289. Ki values were determined by measuring initial enzyme activity in the presence of varying concentrations of inhibitors. The data were analyzed using Enzyme Kinetic and Kaleidagraph software.
# The following substrates were tested for peptide content and activity:
# As described in detail below, an aspect of the invention involves a nonradioactive ELISA based assay suitable for high throughput screening (HTS). The development of the ELISA based CHK1 kinase HTS assay was first initiated with a monoclonal anti-phosphoserine antibody called Clone PSR-45, supplied by Sigma. New Chk peptide substrates, analogues of Syntide2, were synthesized to validate this assay. Biotin-Syntide-2 (SEQ ID NO. 12), and N-terminus acetylated Syntide-2 (SEQ ID NO. 13) and the expected peptide products after CHK phosphorylation, serine phosphorylated Syntide 2 (SEQ ID NO. 15), and serine phosphorylated biotin-Syntide 2 (SEQ ID NO. 16) were synthesized for assay development. […]
row,Activity (peptide substrate) [%],Substance
1,100,"PLARTLSVAGLPGKK [Syntide 2, synthetic substrate peptide, reference compound]"
2,72,"Ac-PLARTLSVAGLPG-AGAGAGAK (Ac-PLARTLSVAGLPGAGAGAGAK) [Syntide 4, N-terminus acetylated analogue of Syntide 2]"

row,Substance,Activity (peptide substrate) [%]
1,KAGAG-PLARTLSVAGLPG-Biotin-K [Syntide 3],67

# Source: US6670167B1, “Catalytic domain of the human effector cell cycle checkpoint protein kinase materials and methods for identification of inhibitors thereof” (Agouron Pharmaceuticals, Inc., priority 1999, dated 2003)
